Paper PMC60004

Columns and labels:
[1] = biological target: Bombyx mori aminopeptidase N, native, 115-kDa (115-120 kDa) Cry1Aa-binding receptor (Bombyx mori (endogenous in larval midgut)); assay: SPR
[2] = biological target: Bombyx mori cadherin-like receptor BtR175, native, 175 kDa (Bombyx mori (endogenous in larval midgut)); assay: SPR

**Q.** How did the Kd [1] turn out when “Hybrid toxin 4109 (domains I and II of Cry1Aa, domain III of Cry1Ac)” was run?
**A.** 78 nM

**Q.** What about the koff [1] of the same substance?
**A.** 0.0015 s⁻¹

**Q.** And the kon [1]?
**A.** 19000 M⁻¹ s⁻¹

**Q.** And the Kd [2]?
**A.** 2.6 nM

**Q.** And the koff [2]?
**A.** 3.34e-05 s⁻¹

**Q.** And the kon [2]?
**A.** 13000 M⁻¹ s⁻¹
